Entries after “also recorded” stand apart in the source; their conditions may differ.
Legend:
[1] = test system: mutant Kras pancreatic organoids; assay: Growth of mutant Kras pancreatic organoids with recombinant IL-4 / IL-13 (Cell Titer Glo); assay type: cell-based, mouse; details: pre-malignant mutant Kras G12D; for proliferation (Cell Titer Glo): 6-day growth; for proliferation (Cell Titer Glo) after cytokine pre-treatment: pre-treatment with the cytokines during 2 weeks
Experimental: Isolation, culture and genetic manipulation of pancreatic organoids. To isolate untransformed ductal organoids for the transplantable PDAC tumorigenesis model, normal pancreas from LSL-KrasG12D mice (pure Bl/6N background) minced and digested with 0.012% collagenase XI (C9407, Sigma-Aldrich) and 0.012% Dispase (17105041, Life Technologies) in HBSS with Mg^2+ and Ca^2+ (14025076, Thermo Fisher Scientific) at 37° C. for a maximum of 30 mins. The material was further digested with TrypLE (GIBCO) for 5 min at 37° C., washed twice with DMEM/F12 (Life Technologies) supplemented with 2 mM glutamine and penn-strep, embedded in growth factor reduced matrigel (Corning), and cultured in complete medium, as described in Boj et al 2014. For activation of mutant Kras, organoids haroburing the LSL-KrasG12D allele were transduced with Ad-mCherry-Cre (Vector Biolabs), and Cherry^+ cells were sorted from single cell organoid suspension by flow cytometry 36h thereafter. Resulting clones were assessed for LSL-KrasG12D recombination by genotyping PCR in genomic DNA using the following primers: 5′ gtc ttt ccc cag cac agt gc 3′ (SEQ ID NO: 19), 5′ ctc ttg cct acg cca cca get c 3′ (SEQ ID NO: 20), and 5′ agc tag cca cca tgg ctt gag taa gtc tgc a 3′ (SEQ ID NO: 21). Validated Cre-recombined clones were then subjected to CRISPR-based inactivation of Trp53 using the PX458 vector (Addgene #48138) and gRNA […] sequence (SEQ ID NO: 22). PX458-sgTrp53 was transduced into organoids by transient transfection using the spinoculation method previously described (O'Rourke et al., 2017), with the modification of using the Effectene transfection reagent (Qiagen). PX458-sgTrp53 introduced cells were sorted by GFP positivity with flow cytometry 36h post-transfection. p53 null status of targeted clones was validated by western blot, using anti-p53 antibody (CMS, Leica Microsystem) and anti-β-actin-peroxidase antibody (Sigma-Aldrich) as normalization control.
This activation was specific (i.e. not observed for many other cytokine receptors, nor during normal pancreas regeneration) and is associated with the emergence of multiple de novo ATAC peaks (FIG. 14B). Preliminary gain-of-function experiments in mutant Kras pancreatic organoids indicate that these druggable Th2 cytokine receptors are functional and modulate organoid growth in vitro (FIG. 14C).

[2] = test system: Kras mutant (KC-GEMM) mice; assay: Recombinant Il-33 treatment of Kras mutant (KC-GEMM) mice; assay type: in vivo, mouse; details: for expression of cell fate / PanIN markers (Agr2, Muc6, Dclk1, Cpa1, Sox9) in mKate2+ pancreatic epithelial cells: KC mice, qRT-PCR, 21 days after treatment; for mutant KRAS-driven tumorigenesis / mucinous PanIN lesions (H&E, Alcian Blue, mKate2) / expansion of Dclk1+ cancer stem cells (Dclk1 immunofluorescence): KC-GEMM mice, 5 consecutive days; for mutant KRAS-driven tumorigenesis / mucinous PanIN lesions (H&E, Alcian Blue, mKate2): 1 ug/mouse i.p. once daily, analyzed 21 days thereafter, vs vehicle (PBS); for expansion of Dclk1+ cancer stem cells (Dclk1 immunofluorescence): 1 ug/mouse, day 21 post-treatment
Experimental: (§1) To compare the effects of tissue injury in the transcriptional and chromatin accessibility landscapes of mutant Kras-expressing or Kras wild-type pancreatic epithelial cells, KC;RIK (p48-Cre;RIK;LSLKrasG12D) or C;RIK (p48-Cre;RIK) male mice were treated with 8 hourly intraperitoneal injections of 80 μg/kg caerulein (Bachem) or PBS for 2 consecutive days, using littermates when possible. To characterize invasive disease, pancreatic ductal adenocarcinoma (PDAC) cells were isolated from cancer lesions arising in autochthonous transgenic models (KPflC;RIK (p48Cre;RIK;LSL-KrasG12D;p53fl/^+) that were macro-dissected away from pre-malignant tissue. As an orthogonal approach, C57Bl/6 female mice (Harlan) were subjected to for orthotopic transplantations with syngeneic ductal organoids harboruing mutant Kras and inactivated Trp53 gene (see below). Prior to transplantation, organoid cultures were dissociated with TrypLE (Gibco) after mechanical dissociation by pipetting and 1-2×10^5 cells in serum-free advanced DMEM/F12 (Life Technologies) supplemented with 2 mM glutamine and penn-strep were mixed 1:1 with growth factor reduced matrigel (Corning) and injected into the exposed pancreas of 8-10 weeks old C57B16/N mice using a Hamilton syringe fitted with a 26 gauge needle. For treatment with recombinant Il-33, 5 weeks-old C or KC mice were injected intraperitoneally once daily doses with 1 ug of murine recombinant Il-33 (#580504, R&D Systems) or vehicle (PBS) for 5 consecutive days.
Immunofluorescence, immunohistochemistry and histological analyses. Tissues were fixed overnight in 10% neutral buffered formalin (Richard-Allan Scientific), embedded in paraffin and cut into 5 μm sections. Slides were heated for 30 min at 55° C., deparaffinized, rehydrated with an alcohol series and subjected to antigen retrieval with citrate buffer (Vector Laboratories Unmasking Solution, H-3300) for 25 min in a pressure cooker set on high. Sections were treated with 3% H2O2 for 10 min followed by a wash in dionized water (for immunohistochemistry only), washed in PBS, then blocked in PBS/0.1% Triton X-100 containing 1% BSA. Primary antibodies were incubated overnight at 4° C. in blocking buffer. The following primary antibodies were used: mKate2 (Evrogen, AB233), GFP (ab13970, Abcam and 2956S, Cell Signaling Technology), Brd4 (HPA015055, Sigma-Aldrich), Myc (ab32072, Abcam), Cpa1 (R&D, AF2765), Clusterin (SCBT sc-6419), SOX9 (Millipore AB553), Amylase (sc-31869, Santa Cruz), Krt19 (Troma III, Developmental Studies Hybridoma Bank) and Il-33 (AF3626, R&D). For mKate2, GFP and cMyc immunohistochemistry, Vector ImmPress HRP kits and ImmPact DAB (Vector Laboratories) were used for secondary detection. Tissues were then counterstained with Haematoxylin or when indicated Alcian blue (pH 2.5) and 0.1% Nuclear Fast Red Solution, dehydrated and mounted with Permount (Fisher). The immunohistochemistry detection of Brd4 was performed at the Molecular Cytology Core Facility of Memorial Sloan Kettering Cancer Center using Discovery XT processor (Ventana Medical Systems-Roche). The tissue sections were blocked for 30 min in 10% normal goat serum, 2% BSA in PBS. A rabbit polyclonal anti-Brd4 antibody (HPA015055, Sigma-Aldrich) was used in 1 ug/ml (1:100) concentrations. The incubation with the primary antibody was done for 6 hours, followed by 60 minutes incubation with biotinylated goat anti-rabbit IgG (PK610, Vector labs) in 5.75 ug/mL concentration. Blocker D, Streptavidin-HRP and DAB detection kit (760-124, Ventana Medical Systems-Roche) were used according to the manufacturer instructions. Slides were counterstained with Hematoxylin (760-2021, Ventana), Bluing Reagent (760-2037, Ventana) and coverslipped with Permount (Fisher Scientific). […]

[3] = test system: Kras-wild type (C-GEMM) mice; assay: Recombinant Il-33 treatment of Kras wild-type (C-GEMM) mice; assay type: in vivo, mouse; details: 21 days after treatment; for pancreas histology (H&E, Alcian Blue): same dosing
Experimental: as §1
Immunofluorescence, immunohistochemistry and histological analyses. Tissues were fixed overnight in 10% neutral buffered formalin (Richard-Allan Scientific), embedded in paraffin and cut into 5 μm sections. Slides were heated for 30 min at 55° C., deparaffinized, rehydrated with an alcohol series and subjected to antigen retrieval with citrate buffer (Vector Laboratories Unmasking Solution, H-3300) for 25 min in a pressure cooker set on high. Sections were treated with 3% H2O2 for 10 min followed by a wash in dionized water (for immunohistochemistry only), washed in PBS, then blocked in PBS/0.1% Triton X-100 containing 1% BSA. Primary antibodies were incubated overnight at 4° C. in blocking buffer. The following primary antibodies were used: mKate2 (Evrogen, AB233), GFP (ab13970, Abcam and 2956S, Cell Signaling Technology), Brd4 (HPA015055, Sigma-Aldrich), Myc (ab32072, Abcam), Cpa1 (R&D, AF2765), Clusterin (SCBT sc-6419), SOX9 (Millipore AB553), Amylase (sc-31869, Santa Cruz), Krt19 (Troma III, Developmental Studies Hybridoma Bank) and Il-33 (AF3626, R&D). For mKate2, GFP and cMyc immunohistochemistry, Vector ImmPress HRP kits and ImmPact DAB (Vector Laboratories) were used for secondary detection. […]

IL-13: recombinant IL-13 cytokine
proliferation (Cell Titer Glo) [1]: pro-proliferative effects | proliferation (Cell Titer Glo) after cytokine pre-treatment [1]: further enhanced

B1: rIl-33: murine recombinant Il-33 (#580504, R&D Systems) (protein, UniProt Q8BVZ5 1-266, looked up)
Interleukin-33: MRPRMKYSNSKISPAKFSSTAGEALVPPCKIRRSQQKTKEFCHVYCMRLRSGLTIRKETSYFRKEPTKRYSLKSGTKHEENFSAYPRDSRKRSLLGSIQAFAASVDTLSIQGTSLLTQSPASLSTYNDQSVSFVLENGCYVINVDDSGKDQEQDQVLLRYYESPCPASQSGDGVDGKKLMVNMSPIKDTDIWLHANDKDYSVELQRGDVSPPEQAFFVLHKKSSDFVSFECKNLPGTYIGVKDNQLALVEEKDESCNNIMFKLSKI
expression of cell fate / PanIN markers (Agr2, Muc6, Dclk1, Cpa1, Sox9) in mKate2+ pancreatic epithelial cells [2]: selective effects | expression of cell fate / PanIN markers (Agr2, Muc6, Dclk1, Cpa1, Sox9) in mKate2+ pancreatic epithelial cells ([2]; listed as recombinant IL-33): accelerates mutant KRAS-driven tumorigenesis | mutant KRAS-driven tumorigenesis / mucinous PanIN lesions (H&E, Alcian Blue, mKate2) [2]: sufficient to trigger many of the tumor-promoting outputs of injury in the mutant Kras setting; also recorded: accelerated ADR with development of mucinous lesions | mutant KRAS-driven tumorigenesis / mucinous PanIN lesions (H&E, Alcian Blue, mKate2) ([2]; listed as recombinant IL-33): promoted tumorigenesis; also recorded: accelerates mutant KRAS-driven tumorigenesis; also recorded: enhanced tumorigenesis | expansion of Dclk1+ cancer stem cells (Dclk1 immunofluorescence) ([2]; listed as Recombinant IL-33): sufficient to drive expansion of Dclk1^+ cancer stem cells in vivo | expansion of Dclk1+ cancer stem cells (Dclk1 immunofluorescence) ([2]; listed as recombinant IL-33): cancer stem cell expansion | expression of cell fate / PanIN markers in mKate2+ pancreatic epithelial cells [3]: no detectable effects | expression of cell fate / PanIN markers in mKate2+ pancreatic epithelial cells ([3]; listed as recombinant IL-33): no effect | pancreas histology (H&E, Alcian Blue) [3]: no detectable effects; also recorded: retain normal architecture | pancreas histology (H&E, Alcian Blue) ([3]; listed as recombinant IL-33): no effect

B2: recombinant IL-4: recombinant IL-4 cytokine (protein, UniProt P05112 25-153, looked up)
Interleukin-4: HKCDITLQEIIKTLNSLTEQKTLCTELTVTDIFAASKNTTEKETFCRAATVLRQFYSHHEKDTRCLGATAQQFHRHKQLIRFLKRLDRNLWGLAGLNSCPVKEANQSTLENFLERLKTIMREKYSKCSS
proliferation (Cell Titer Glo) [1]: pro-proliferative effects | proliferation (Cell Titer Glo) after cytokine pre-treatment [1]: further enhanced
